From patent publication US20160207996A1 (ARGEN X N V, published 2016) come the findings set out here.

The target in test [1] is T1, GST-tagged hNav1.2-loopA3 (human, UniProt Q99250 273-362).
T1 construct: bought (Abnova); monomeric; also called hNav1.2 derived monomeric GST-tagged loopA3 peptide; Abnova H00006326-Q01; not shown: GST tag
Put plainly: binding ELISA on coated GST-tagged hNav1.2 loop A3 peptide, OD620. An excerpt:
(§1) The therapeutic potency of an anti-hNav1.7 antibody will highly depend on the lack of binding to other Nay family members. Of particular interest is hNav1.5, which is expressed on cardiac muscle cells. As such, cross-reactive binding of hNav1.7 antibodies to hNav1.5 could lead to heart failure. To assay the specificity of the mAbs derived from DNA immunization for hNav1.7, the corresponding loopA3 and loopB1-C1-D1 sequences of hNav1.5 were cloned as llamaFc chimera and cross-reactivity was determined using a binding ELISA (FIG. 8). All clones, except clone 9A6 and 9H4, show no cross-reactivity to hNav1.5. In addition, cross reactivity for hNav1.2 was tested for the loopA3-binding clones 8A7 and 8B6 using hNav1.2 and hNav1.7 derived monomeric, GST-tagged loopA3 peptides (Abnova, H00006326-Q01 (hNav1.2) and H00006335-Q01 (hNav1.7)). Again, no cross-reactive binding was observed.
On the technique in general: ELISA stands for enzyme-linked immunosorbent assay.

Test [2] has as its target human Nav1.7 (full length) (human) (UniProt Q15858). The experiment in a line: cell-based or functional assay.
For test [3], the target named is T2, hNav1.5-loopA3-llFc (human).
T2 construct: also called Nav1.5 extracellular loop A3 llamaFc chimera
T2 chain: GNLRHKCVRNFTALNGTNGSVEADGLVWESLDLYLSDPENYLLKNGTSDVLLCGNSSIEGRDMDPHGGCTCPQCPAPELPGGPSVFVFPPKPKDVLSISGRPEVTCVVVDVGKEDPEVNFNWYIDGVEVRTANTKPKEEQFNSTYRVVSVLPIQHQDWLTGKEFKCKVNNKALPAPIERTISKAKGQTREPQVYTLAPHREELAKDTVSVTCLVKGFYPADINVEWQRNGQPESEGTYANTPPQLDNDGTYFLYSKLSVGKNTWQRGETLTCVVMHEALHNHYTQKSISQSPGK
Put plainly: binding ELISA on coated hNav1.5 loop A3-llama Fc, OD620.
Description: as §1

Test [4] has as its target T3, hNav1.7-loopB1-C1-D1-llama Fc (human).
T3 construct: whole entry: loops B1, C1, D1 joined by linkers, llama Fc; also called hNav1.7-loopB1-C1-D1-llfc
T3 chain: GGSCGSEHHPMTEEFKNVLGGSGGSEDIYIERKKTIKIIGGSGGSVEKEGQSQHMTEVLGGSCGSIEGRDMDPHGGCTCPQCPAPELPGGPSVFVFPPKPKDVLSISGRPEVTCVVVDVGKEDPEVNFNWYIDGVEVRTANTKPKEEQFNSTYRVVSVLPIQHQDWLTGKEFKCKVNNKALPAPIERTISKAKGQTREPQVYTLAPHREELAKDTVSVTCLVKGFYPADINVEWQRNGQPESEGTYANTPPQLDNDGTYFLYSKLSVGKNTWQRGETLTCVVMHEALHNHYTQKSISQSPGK
The experiment in a line: binding ELISA on coated loop-llama Fc chimera (20 ng/well), OD620. How it is done:
(§2) For all DNA-immunization derived mAbs the binding affinity for the various hNav1.7-loop-llama Fc chimeras was tested in a binding ELISA. Therefore, a Maxisorp plate (Nunc) was coated with 20 ng/well of hNav1.7-loopA3-llama Fc, hNav1.7-loopB1-C1-D1-llama Fc or hNav1.7-loopC3-llama Fc. Remainder of the ELISA setup is as described above. […] Only at very high concentration minor cross-reactivity is observed for some clones.

Test [5] addresses T4, ratA3-llFc (rat).
T4 construct: also called rat Nav1.7 loopA3 llamaFc chimera
T4 chain: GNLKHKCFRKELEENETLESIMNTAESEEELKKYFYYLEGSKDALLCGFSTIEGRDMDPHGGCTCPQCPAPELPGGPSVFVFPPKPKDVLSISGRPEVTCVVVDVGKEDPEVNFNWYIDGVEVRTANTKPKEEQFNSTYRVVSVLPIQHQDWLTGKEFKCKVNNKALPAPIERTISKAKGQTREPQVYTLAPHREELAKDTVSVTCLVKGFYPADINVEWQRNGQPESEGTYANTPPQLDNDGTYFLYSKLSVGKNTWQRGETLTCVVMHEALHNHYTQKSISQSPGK
The experiment in a line: binding ELISA on coated rat Nav1.7 loop A3-llama Fc, OD620.

The target of test [6] is T5, hNav1.7-loopA3-llama Fc fusion (human).
T5 construct: also called hNav1.7-loopA3-llFc; loopA3-llamaFc chimera
T5 chain: T4 chain with K10N, E11S, E14N, A25L, E30D, L31F, K32R
The experiment in a line: ELISA, coated loopA3-llama Fc 10 ng/well, mAb titrated. How it is done:
(§3) In a next experiment, the binding affinity of the loop-specific mAbs was determined and compared to reference mAbs as described in US2011/0135662 (for loop A3: UCB_932, for loopB1-C1-D1: UCB_983, for loopC3: UCB_1066; US2011/0135662). Affinities were determined using an ELISA with a loop-coating of 10 ng/well (loopA3-llama Fc), 20 ng/well (loop-B1-C1-D1-llama Fc) or 50 ng/well (loopC3-llama Fc). The remainder of the experimental setup was identical to abovementioned binding ELISAs. Most of the mAbs show pM affinity for the respective hNav1.7 extracellular loop they are binding. […] The EC₅₀ for the reference mAbs could not be determined (nd) from the ELISA data available because the binding was too weak.

Test [7] has as its target T6, GST-tagged hNav1.7-loopA3 (human, UniProt Q15858 269-339).
T6 construct: monomeric GST-tagged peptide; also called hNav1.7-loopA3-GST; Nav1.7-loopA3-GST; not shown: GST tag
The experiment in a line: binding ELISA on coated GST-tagged hNav1.7 loop A3 peptide, OD620.
Description: as §1

The target in test [8] is T7, RatB1-C1-D1-llFc (rat).
T7 construct: also called rat Nav1.7 loopB1-C1-D1 llamaFc chimera
T7 chain: T3 chain with R32K, S52T, Q53E, H54Y, T56D, E57Y
The experiment in a line: binding ELISA; the panel prints no target, by paragraph 562 the coated rat loop B1-C1-D1-llama Fc.

Test [9] has as its target T8, hNav1.5-B1-C1-D1-llFc (human).
T8 construct: also called Nav1.5 extracellular loop B1-C1-D1 llamaFc chimera
T8 chain: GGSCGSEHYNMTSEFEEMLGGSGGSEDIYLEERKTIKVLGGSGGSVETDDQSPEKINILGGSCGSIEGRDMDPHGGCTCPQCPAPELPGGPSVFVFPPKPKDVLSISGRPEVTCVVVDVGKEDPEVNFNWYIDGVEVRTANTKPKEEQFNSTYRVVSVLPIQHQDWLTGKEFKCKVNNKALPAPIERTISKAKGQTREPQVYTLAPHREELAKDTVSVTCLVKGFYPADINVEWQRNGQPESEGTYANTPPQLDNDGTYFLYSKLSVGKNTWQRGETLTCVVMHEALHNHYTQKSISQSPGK
The experiment in a line: binding ELISA; the panel prints no target, by paragraph 288 and paragraph 555 the coated hNav1.5 loop B1-C1-D1-llama Fc.
Description: as §1

The target of test [10] is T3, hNav1.7-loopB1-C1-D1-llama Fc. Put plainly: ELISA, coated loop-B1-C1-D1-llama Fc 20 ng/well, mAb titrated. The method, then: mAbs originating from the loopA3-llama Fc immunization were assayed for their affinity for hNav1.7-loopA3. Therefore, a Maxisorp plate was coated with 10 ng/well of loopA3-llamaFc chimera and incubated overnight at 4° C. The next day, the plate was blocked with PBS+1% casein for 2 hours at RT. Subsequently a concentration gradient of antibodies was applied (range 0.25 pM-66 nM) for another hour. Antibody binding to loopA3 was detected using a HRP-conjugated anti-human Fc antibody (Abcam, Ab7499) (incubation 1 hour at RT, dilution 1/5000 in PBS+0.1% casein), followed by TMB addition and OD620 nm measurement. EC50 values were determined using GraphPad Prism software. For comparison purposes a known hNav1.7-loopA3 binding monoclonal antibody, UCB_932 (US2011/0135662), was tested.
as §3

Test [11] concerns the target T9, hNav1.7-loopC3-llama Fc (human).
T9 construct: whole entry: loop C3, linker, llama Fc; also called hNav1.7-loopC3-llfc
T9 chain: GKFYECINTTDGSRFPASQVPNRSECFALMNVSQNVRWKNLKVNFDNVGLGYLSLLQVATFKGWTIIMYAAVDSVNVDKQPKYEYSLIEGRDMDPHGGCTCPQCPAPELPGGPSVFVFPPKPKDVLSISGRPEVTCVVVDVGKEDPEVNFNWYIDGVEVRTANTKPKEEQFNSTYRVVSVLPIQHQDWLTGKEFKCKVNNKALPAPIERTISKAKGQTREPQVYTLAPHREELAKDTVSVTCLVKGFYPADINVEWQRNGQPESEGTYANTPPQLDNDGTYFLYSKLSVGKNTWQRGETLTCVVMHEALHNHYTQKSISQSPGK
The experiment in a line: binding ELISA on coated loop-llama Fc chimera (20 ng/well), OD620. How it is done:
as §2

For test [12], the target named is T5, hNav1.7-loopA3-llama Fc fusion. Described as above. How it is done:
as §2

Residue numbers refer to the chain shown, from its start.

T1 sequence (Q99250 273-362 limits assumed): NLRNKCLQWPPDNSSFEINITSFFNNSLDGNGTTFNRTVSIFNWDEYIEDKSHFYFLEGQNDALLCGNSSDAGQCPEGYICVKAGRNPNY

B1: 8B6 (antibody, human IgG1, V domains shown)
VH: EVQLQESGPGLVKPSQTLSLTCTVSGGSISTSGTGWSWIRQPPGKGLEWMGIIGYDGGTYYNPSLKSRTSISRDTSKNQFSLQLTSVTPEDTAVYYCARGLGPWGQGIQVTVSS
VL: DIQMTQSPSSLSASLGDRVTITCQASQGISKYLAWYQQKPGQAPKLLIYSASRLETGVPSRFSGSGSGTTFTLVISGLEAEDAGSYYCQQYYRAPATFGQGTKVELK
With B1, the figures for the binding result in [1], in test [3] and in [4] were “no binding (tested: about 130 nM)”, “no binding (tested: about 66 ng/ml (axis as labelled))” and “no binding (tested: about 66 nM)”, respectively. In addition, in test [2], the % inhibition of inward current following P02 voltage protocol, 10 µg/ml came to 30.2%. The molecule further had a % inhibition of inward current following P02 voltage protocol, 25 µg/ml in [2] of 58.4%. In [2], this molecule displayed a % inhibition of inward current following P02 voltage protocol, 100 µg/ml of 72.2%. For the same molecule, the EC50 (read off the curve) – broadly, the midpoint of the concentration-response curve – was approximately 0.6 nM in test [5] and approximately 0.5 nM in test [7]. For the same molecule, in [6], the EC50 (usually the concentration giving half of the maximal effect) turned out to be 0.37 nM.

B2: 9H4 (antibody, human IgG1, V domains shown)
VH: EVQLVQPGAELRNPGASVKVSCKASGYIFTSAYIDWVRQAPGQGLEWMGRIDPEDGETRYAHQFRDRVTFTADTSTSTVYAELNSLRSEDTAVYYCAITIEGFWGQGTQVTVSS
VL: ATMLTQSPGSLSVVPGESASISCKTSRSLVHSDGKTYLSWLLQKPGQSPQRLIYQVSNRGSGVPDRFTGSGSGTDFTLKISGVKAEDAGVYYCAQATYYPLSFGSGTRVEIK
As for B2, the binding result in [8], in [9], in test [11] and in test [12] was “binds” in each case. In [2], this molecule displayed a % inhibition of inward current following P02 voltage protocol, 10 µg/ml of 3.8%. For the same molecule, the % inhibition of inward current following P02 voltage protocol, 25 µg/ml in test [2] stood at 19.8%. Besides, in [2], the % inhibition of inward current following P02 voltage protocol, 100 µg/ml is 23.9%. Further, in test [10], the EC50 stood at 0.19 nM.
